Results as given in the DeepSol protein solubility set.

Assay: soluble on expression in E. coli; label from the status in PepcDB or PDB records

Sequence | soluble on expression in E. coli
MESMLLPKYFDILIVDDIPEHIDVAVQVLRDSNFKIRVATDGNTALKLIYQQKPDLILLDIYMPEMDGFELCRLIKNTPDLKNIPVIFLTSFSDEESIRKGFESGGQDYVVKPFNASELLSRVKTHLMLKCQAESLKEANKELDSFCYTVAHDLKSPLLSLNKLVELLVSDHLNQLDSAGKELVYNIREKSSEIIHTVDRLLEFSKMCEMQVNFEIIDLNELFTEVCNELKSLEPQRDIRIHIQPLPKVYGDRLLMRLLISNILSNAFKYTRNRQTAIIEIQSSEDGNEYVFFVKDNGAGFDMKYSSRLFGVFQRLHSKDEFEGSGVGLAICQRILKRHNGRAWMTGEIDKGATFFFTLPKFE | soluble
MKIVTTVQEMQHITKELRASGKSIGFVPTMGYLHEGHATLLRKAREENEIVVLSVFVNPLQFGPNEDLDRYPRDIDRDENVAKENGVDYLFYPSVEEMYPAEQTTTVEVVKRTDVLCGKQRPGHFAGVATVLMKLFNITLPTRAYFGMKDAQQVAVIEGFVADFNIPVIIVPVDIVREEDGLAKSSRNVYLSQKERKEAPHLYRSLCMAKERIEAGERNAEIITTLVKEYIETYTKGTVDYADLYAYPSLQVVDQIEGRIILAIAVKFENVRLIDNITLTVK | not soluble
MKGMSKMPQFNLRWPGGGPQFNLRWPREVLDLVRKVAEENGRSVNSEIYQRVMESFKKEGRIGGTGGSGGGREVLDLVRKVAEENGRSVNSEIYQRVMESFKKEGRIGAHHHHHHKNQHE | soluble
MQEILIPLKEKNYKVFLGELPEIKLKQKALIISDSIVAGLHLPYLLERLKALEVRVCVIESGEKYKNFHSLERILNNAFEMQLNRHSLMIALGGGVISDMVGFASSIYFRGIDFINIPTTLLAQVDASVGGKTGINTPYGKNLIGSFHQPKAVYMDLAFLKTLEKREFQAGVAEIIKMAVCFDKNLVERLETKDLKDCLEEVIFQSVNIKAQVVVQDEKEQNIRAGLNYGHTFGHAIEKETDYERFLHGEAIAIGMRMANDLALSLGMLTLKEYERIENLLKKFDLIFHYKILDLQKFYERLFLDKKSENKTIKFILPKGVGAFEVASHIPKETIIKVLEKWH | soluble
MGSDKIHHHHHHLEQQAIVANNLANASTTGFRAQLATFRAVPMSFGDGSSINDNTTRTFVLSSTPGADYTPGPIQQTGNPLDVAIQGPGWLAVQTADGGEAYTRAGNLHIDENGQLVNATNQVVLGNGGPVSVPPGAEITIGKDGTVSALTPGDPPTAVVTVDQLKLVNPDPQTMTRGDDGLFRTGDGNPADADPTVTLAPASLEGSNVNPVSAMVSMITNARQFQMQTKLLESADKNDQSANQLLSFS | not soluble
MVGHSESSTDAVIEPTSEELLAEQVRVFNKMKGSTNFNRVAEDVYPVEVTKSKLVCEMVVQHQHLNSKGTLHGGQTATLTDVITARAVGVTVKDKGMASVELAVSYLLPVKVGDVLEITAHVLKVGRTMAFTDCEFRRKSDGKMSAKGKHTLAFLPNQPGISVENGTQFLEHHHHHHS | soluble
SSLENVVYNLVNAGHFDGRAGELPCAVIGEKVIAKIQNEDVVVFKNNTPFPTNVAVELFAKRSIRPHPELKLFRNLNIDVCWSHVLWDYAKDSVFCSSTYKVCKYTDLQCIESLNVLFDGRDNGALEAFKKCRNGVYINTTKIKSLSMIKGPQRADLNGVVVEKVGDSDVEFWFAVRKDGDDVIFSRTGSLEPSHYRSPQGNPGGNRVGDLSGNEALARGTIFTQSRLLSSFTPRSEMEKDFMDLDDDVFIAKYSLQDYAFEHVVYGSFNQKIIGGLHLLIGLARRQQKSNLVIQEFVTYDSSIHSYLITDENSGSSKSVCTVIDLLLDDFVDIVKSLNLKCVSKVVNVNVDFKDFQFMLWCNEEKVMTF | soluble
CSEPYEGKVAVASVILNRLQNPEFPKSIGDVIKQKYAFSCIRDGKIEVTPNQECYNAVMDALHGKDPTPKAMYFYNPRISTSSWMNNIQKENVKVIGNHVFFKTYKE | not soluble
MASKGAARVRKKEIVKVVHGALLRTNIKAQMASAAPPLGPQLGQRGLNVANFCKEFNKETGHFKQGVPLPTRITVKPDRTYDLEICTPTTTWLLKQAAGIGRGKASKDEIVGKLTVKHLYEIAKIKSRDKALQHVPLEQICRMLIKTCRTLGIDVQYHDLDPVELKEFLVARKEKVDAQLKDLADKKAAKMLRTT | not soluble
